Reference: patent US5618696A, “Human kunitz-type protease inhibitor and variants thereof” (Novo Nordisk A/S, priority 1992, dated 1997)
Where no end group is shown, it is not given here.

How the values were obtained:
[1] = target: T1, bovine chymotrypsin (TLCK treated) (Bos taurus, UniProt P00766); assay: Inhibition of chymotrypsin by HKIB9 variants; format: biochemical; conditions: at 1 μM
T1 construct: purchased Sigma Chemical Co. (St. Louis, Mo., U.S.A.)
Description: (§1) Their concentration was determined from the absorbance at 214 nm using aprotinin as a standard. Porcine trypsin was obtained from Novo Nordisk A/S, bovine chymotrypsin (TLCK treated) was obtained from Sigma Chemical Co. (St. Louis, Mo., U.S.A.). Human neutrophil cathepsin G and elastase were purified from extracts of PMNs according to the method described by Baugh and Travis, Biochemistry 15, 1976, pp. 836-843.
(§2) Peptidyl nitroanilide substrates S2251 and S2586 were obtained from Kabi (Stockholm, Sweden). S7388 and M4765 were obtained from Sigma Chemical Co.
(§3) Serine proteinases were incubated with various concentrations of the variants for 30 minutes. Substrate was then added and residual proteinase activity was measured at 405 nm.

[2] = target: T2, Human neutrophil cathepsin G (Homo sapiens, UniProt P08311); assay: Inhibition of cathepsin G by HKIB9 variants; format: biochemical; conditions: at 1 μM
T2 construct: Human neutrophil cathepsin G and elastase were purified from extracts of PMNs; from tissue; host or cells: human polymorphonuclear leukocytes (PMNs), method of Baugh and Travis
T2 sequence (P08311 21-255): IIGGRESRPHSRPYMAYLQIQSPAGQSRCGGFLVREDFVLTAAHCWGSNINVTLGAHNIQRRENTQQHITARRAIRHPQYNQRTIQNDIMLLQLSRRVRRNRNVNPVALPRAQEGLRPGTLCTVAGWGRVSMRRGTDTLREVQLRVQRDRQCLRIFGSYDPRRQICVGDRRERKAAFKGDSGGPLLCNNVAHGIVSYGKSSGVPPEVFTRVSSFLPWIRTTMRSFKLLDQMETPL
Description: as §1, §2, §3

Porcine trypsin = target: T3, Porcine trypsin (Sus scrofa, UniProt P00761); assay: Inhibition of trypsin by HKIB9 variants; format: biochemical; conditions: at 1 μM
T3 construct: purchased Novo Nordisk A/S
T3 sequence (P00761 9-231): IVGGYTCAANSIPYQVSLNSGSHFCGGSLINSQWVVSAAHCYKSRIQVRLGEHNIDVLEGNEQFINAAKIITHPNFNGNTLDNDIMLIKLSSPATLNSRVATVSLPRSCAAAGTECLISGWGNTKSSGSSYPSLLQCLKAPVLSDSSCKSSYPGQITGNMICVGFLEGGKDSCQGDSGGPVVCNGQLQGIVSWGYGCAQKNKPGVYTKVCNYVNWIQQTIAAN
Description: as §1, §2, §3

[3] = Net charge of the inhibitor; format: physicochemical
collagenase = conditions: cited from earlier work
granulocyte elastase = target: T4, granulocyte elastase (Homo sapiens, UniProt P08246); conditions: cited from earlier work
T4 sequence (P08246 30-267): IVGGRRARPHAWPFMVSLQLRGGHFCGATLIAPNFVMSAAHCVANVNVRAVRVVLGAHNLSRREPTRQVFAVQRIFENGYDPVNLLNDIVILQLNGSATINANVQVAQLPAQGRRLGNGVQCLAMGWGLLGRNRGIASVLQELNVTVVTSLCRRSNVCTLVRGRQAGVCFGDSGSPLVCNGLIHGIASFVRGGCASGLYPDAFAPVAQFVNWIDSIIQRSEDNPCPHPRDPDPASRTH

[4] = high doses, including cardiopulmonary bypass operations; cited from earlier work
plasmakallikrein = plasmakallikrein (Homo sapiens, UniProt P03952); conditions: cited from earlier work
plasmakallikrein, sequence (P03952 20-638, species assumed): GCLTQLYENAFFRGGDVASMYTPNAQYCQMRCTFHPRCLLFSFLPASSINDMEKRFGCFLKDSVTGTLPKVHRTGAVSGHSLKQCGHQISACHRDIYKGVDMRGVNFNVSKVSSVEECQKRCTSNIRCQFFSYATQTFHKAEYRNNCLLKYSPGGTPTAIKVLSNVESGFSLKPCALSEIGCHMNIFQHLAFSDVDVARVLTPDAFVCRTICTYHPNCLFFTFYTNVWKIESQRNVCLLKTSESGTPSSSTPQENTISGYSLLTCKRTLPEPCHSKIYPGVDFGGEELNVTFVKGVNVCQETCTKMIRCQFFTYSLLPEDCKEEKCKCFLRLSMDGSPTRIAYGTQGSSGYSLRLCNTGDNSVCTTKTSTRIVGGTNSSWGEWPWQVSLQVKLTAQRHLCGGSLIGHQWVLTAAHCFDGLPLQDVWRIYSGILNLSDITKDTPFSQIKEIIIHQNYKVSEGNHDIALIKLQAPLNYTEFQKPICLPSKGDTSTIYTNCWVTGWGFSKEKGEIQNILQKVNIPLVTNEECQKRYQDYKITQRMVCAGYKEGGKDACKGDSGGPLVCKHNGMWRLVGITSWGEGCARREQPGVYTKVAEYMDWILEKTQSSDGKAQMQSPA

[5] = target: Human neutrophil elastase (human, UniProt P08246); assay: enzyme inhibition: proteinase incubated with various concentrations of the variant for 30 min, residual activity on peptidyl nitroanilide substrate at 405 nm
Description: as §3

[6] = target: bovine chymotrypsin (TLCK treated) (bovine) (UniProt P00766)

For “[Q15V, T16A]-HKIB9 (DLLPNVCAFPMEKGPCVAYMTRWFFNFETGECELFAYGGCGGNSNNFLRKEKCEKFCKFT) [KFN 1930, HKIB9 Kunitz domain variant produced from yeast strain KFN-1930 (plasmid pKFN-1916)]”, the inhibition of chymotrypsin [1] was 5%, the “inhibition of cathepsin G” value [2] was “not to inhibit” and the inhibition of trypsin (Porcine trypsin) was “not to inhibit”.

With “HKI B9: novel human Kunitz-type protease inhibitor domain, SEQ ID No. 1, produced from yeast strain KFN-1830 (DLLPNVCAFPMEKGPCQTYMTRWFFNFETGECELFAYGGCGGNSNNFLRKEKCEKFCKFT)” the net charge [3] was “zero”.

For aprotinin(1-58, Val15), the effect on collagenase (collagenase) is given as “inhibitory effect” and the “effect on / selectivity for granulocyte elastase” value (granulocyte elastase) is given as “relatively high selectivity”.

For aprotinin [reference compound], the net charge [3] is listed as “strongly positive” and the “blood loss in connection with cardiac surgery” value [4] is listed as “significantly reduces blood loss”.

In the case of aprotinin (3-58, Arg15, Ala17, Ser42), the plasmakallikrein inhibitory effect (plasmakallikrein) is listed as “excellent”.

For aprotinin (1-58, Ala15), the “effect on / selectivity for granulocyte elastase” value (granulocyte elastase) is given as “weak effect”.

In the case of “[Q15V, T16G]-HKIB9 (DLLPNVCAFPMEKGPCVGYMTRWFFNFETGECELFAYGGCGGNSNNFLRKEKCEKFCKFT) [KFN 1902, HKIB9 Kunitz domain variant produced from yeast strain KFN-1902 (plasmid pKFN-1892)]”, the inhibition of chymotrypsin [1] is reported as 5%, the “inhibition of cathepsin G” value [2] is reported as “not to inhibit” and the inhibition of trypsin (Porcine trypsin) is reported as “not to inhibit”.

B1: [Q15V, T16G]-HKIB9 (other)
chain: DLLPNVCAFPMEKGPCVGYMTRWFFNFETGECELFAYGGCGGNSNNFLRKEKCEKFCKFT
modifications: ends and bridges not checked; cysteine pairing not given here
B1 gave a Ki [5] of 140 nM and a residual proteinase activity measured at 405 nm [6] of 5%.

B2: [Q15V, T16A]-HKIB9 (other)
chain: DLLPNVCAFPMEKGPCVAYMTRWFFNFETGECELFAYGGCGGNSNNFLRKEKCEKFCKFT
modifications: ends and bridges not checked; cysteine pairing not given here
B2 showed a Ki [5] of 64 nM and a residual proteinase activity measured at 405 nm [6] of 5%.
